Results as given in the RNAGym collection of RNA variant scans (doi:10.1073/pnas.2313332121).

B1: TPR t1 (parent)
chain: GACCAAUCUGCCCUCAGAGCUCGAGAACAUCUUCGGAUGCAGAGGAGGCAGGCUUCGGUGGCGCGAUAGCGCCAACGUCCUCAACCUCCAAUGCAUCCCACCACAUGAUGAUGCCUGAAGAGCCUUGGUUUUUUG

Variants of: B1
Assay: polymerase ribozyme fitness, log enrichment relative to wild type (log ratio); higher = more active; in vitro selection for triplet polymerase activity
Procedure, shortened: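 After PCR construction and transcription, each subunit's mutant library from a heterodimeric triplet polymerase ribozyme was annealed with a biotinylated primer, the partner subunit and triplets. Incubation was frozen, at −7 °C, and extended constructs were gel-excised, bound to streptavidin beads and amplified by RT-PCR, in one selection round done in triplicate. Fitness is the logarithm of a genotype's enrichment divided by that of the wild type, from inverse-variance-weighted replicate averages of Illumina-sequenced inputs and outputs. The base of the logarithm is 2, and genotypes needed ≥10 input reads and ≥1 read per output.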

| Variant | polymerase ribozyme fitness (log ratio) |
| --- | --- |
| GACCAAUCUGCCCUCAGAGCUCGAGAACAUCUUCGGAUGUAGAGGAGGCAGGCUUGGGUGGCCCGAUAGCGCCAACGUCCUCAACCUCCAAUGCAUCCCACCACAUGAUGAUGCCUGAAGAGCCUUGGUUUUUUG [C40U C56G G63C] | -3.69 |
| GACCAAUCUGCCCUCAGAACUCGAGAACAUCUUCGGAUGCAGAGGAGGCAGGCUUGGGUGGCGCGAUAGCGCCAACGUCCUCAACCUCCAAUGCAUCCCACCACAAGAUGAUCCCUGAAGAGCCUUGGUUUUUUG [G19A C56G U106A G113C] | -1.09 |
| GAUCAAUCUGCCCUCAGAGCUCGAGAACAUCUUCGGAUGCAGAGGAGGCAGGCAUCGGUGGCGCGAUAGCGCCAACGUCCUCAACCUCCAUUGCAUCCCACCACAUGAUGAUGCCUGAAGAGCCUUGGUUUUUUG [C3U U54A A91U] | -2.48 |
| GACCAAUCUGCCCUCAGAGCUCGAGAACAUCUUCGGAUGCAGAGGAGGCAGGCUUCGGUGGCGCGAUAGCGCCAACGUCCUCAACCUCCAAUGAAUCCCACCACAUGAUGAUGCCUGAAGAGCCUUGGCUUUUUG [C94A U129C] | -0.753 |
| GACCCAUCUGCCCUCAGAGCUCGAGAACAUCUUCGGAUGCAGAGGAGGCAGGCUUCGGUGGCGCGAUAGCGCCAACGUCCUCAACCUCCAAUGCAUCCCACCACAUGAUGAGGCCUGAAGAGCCUUGGUCUUUUG [A5C U112G U130C] | -0.277 |
| GACCAAUCUGCCCUCAGAGCUCGAGAACAUCUUCGGAUGCAGAGGAGGCAGGCUUCGGUGGCGCGAUAGCGCCAACGUCCUCAACCUCCAAUCCAUCCCACCACAUGAUGAAGCCUGAAGAGCCUUGGUUUUUUG [G93C U112A] | 0.679 |
| GACCAAUCUGCCCUCAUAGCGCGAGAACAUCUUCGGAUGCAGAGGACGCAGGCUUCGGUGGCGCGAUAGCGCCAACGUCCUCAACCUCCAAUGCAUCCCACCACAUGAUGAUGCAUGAAGAGCCUUGGUUUUUUG [G17U U21G G47C C115A] | -1.81 |
| GACCAAUCUGCCCUCAGAGCUCGAGAACAUCUUCGGAUGCAGAGGAGGCAGGCUUCGGUGCCGCGAUAGCGCCAACGUCCUCAACCUCCAAUGCAUCCCACCACAUGAUGAAGCCUGAAGAGCCUUGGUUUUUUG [G61C U112A] | -0.897 |
| GUCCCAUCUGCCCUCAGAGCUCGAGGACAUCUUCGGAUGCAGAGGAGGCAGGCAUCGGUGGCGCGAUAGCGCCAACGUCCUCAACCUCCAAUGCAUCCCACCACAUGAUGAUGCCUGAAGAGCCUUGGUUUUUUG [A2U A5C A26G U54A] | -4.4 |
| GACCAAUCUGCCCUCAGAGCUCGAGAACAUCUUGGGAUGCCGAGGAGGCAGGCUUAGGUGGCGCGUUAGCGCCAACGUCCUCAACCUCCAAUGCAUCCCACCACAUGAUGAUGCAUGAAGAGCCUUGGUUUUUUG [C34G A41C C56A A66U C115A] | -7.59 |
| GACCAAUCUGCCCUCAGAGCUCGAGAACAUCUUCGGAUGCAGAGGAGGCAGGCUUCGGUGGGGCGAUAGCGCCAACGUCCUCAACCUCCAAUGCAUCCCACAACAUGAUGAUGCAUGAAGAGCCUUGGUUUUUUG [C62G C102A C115A] | -2.67 |
| GACCAAUCUGCCCUCAGAGCUCGAGAACAUCUUCGGAUGCAGAGGAGGCAGGCUUCGGUGGCGCGAUAGCGACAACGUCCUCAACCUCAAAUGCAUCCCACCACAAGAUGAUGCCUGAAGAGCCUUGGUUUUUUG [C72A C89A U106A] | -2.09 |
| GACCAAGCUGCCCUCAGAGCUCGAGAACAUCUUCGGAUGCAGAGGAGGCAGGCUUCGGUGGCGCGAUAGCGCCAACAUCCUCCACCUCCAAUGCAUCCCACCACAUGAUGAUGCCUGAAGAGCCUUGGUUUUUUG [U7G G77A A83C] | 0.167 |
| GACCAAUCUGCCCUUAGAGCUCGAGAACAUCUUCGGAUGCAGAGGAGGCAGGCUUCGGUGGCGCGAUAGCGCCAACGUCCUCAACCUCCAAUGCAUCCCACCACAUGAUGAUGCCUGAAUAGCCUUGGUUUUUUG [C15U G120U] | -0.697 |
| GACCAAUCUGCCCUCAGAGCUCGAGAACAUCUUCGGAUGCAGAGGAGGCAGGCUUCGGUGGCGCGAUAGCGUCAACGUCCUCAACCUCCAAUGCAUCCCACCACAUCAAGAUGCCUGAAGAGCCUUGGUAUUUUG [C72U G107C U109A U130A] | -5.31 |
| GACCAAUCUGCCCUCAGAGCUCGAGAACAUCUUCGGAUGCAGAGGAGGCUGGCUUCGGUGGCGCGAUAGCGCCAACGUCCUCAAACUCCAAUGCAUCCCACCACAUGAUGAUGCCUGAAGAGCCUUGGUUUUUUG [A50U C85A] | -2.11 |
| GACCAAUCUGCCCUCAGAGCUCGAGAACAUCUUCGGAUGCAGAGGAGGCAGGCUUCGGUGGCGCGAUAGAGCCAACGUCCUCAACCUCCAAUGCAUCCCACCACAUGAUGAUGCCUGAAGAGCUUUGGUUUUCUG [C70A C124U U133C] | 0.767 |
| GACCAAUCUGCCCUCAGAGCUUGAGAACAUCUUCGGAUGCAGAGGAGGCAGGCUUGGGUAGCGCGAUAGCGCCAACGUCCUCAACCUCCAAUGCAUCCCACCACAUGAUGAUGCCUGAAGAGCCUUGGUUUUUUG [C22U C56G G60A] | -5.5 |
| GACCAAUCUGCCCUCAGAGCUCGAGAACAUCUUCGGAUUCAGAGGAGGCAGGCUUGGGUGGCGCGAUAGCGGCAACGUCCUCAACCUCCAAUGCAUCCCACCACAUGAUGACGCCUGAAGAGCUUUGGUUUUUUG [G39U C56G C72G U112C C124U] | -1.3 |
| GACCAAUCUGCCCUCAGAGCUCGAGAACAUCUUCGGAUGCAGAGGAGGCAGGCUUCGGUGGUGCGAUAGCGCCAACGUCCUCAACCUCCAAUGCAUCCCACCACAUGAUGAUGCCUGAAGAGCCUUGGUUUUUUG [C62U] | -0.118 |
| GACUAAUCUGCCCUCAGAGCUCGAGAACAUCUUCGGAUGCAGAGGAGGCAGGCUUCGGAGGCGCGAUAGCGCCAACGUCCUCAACCUCCAAUGCAUCCCACCACAUGAUGAUGCCUGAAGAGCCUUGGUUUUUUG [C4U U59A] | -0.304 |

| Variant | polymerase ribozyme fitness (log ratio) |
| --- | --- |
| GACCAAUCUGCCCUCAGAGCUCGAGAACGUCUUCGGAUGCAGAGGAGGCAGGCUUCGGUGGCGUGAUAGCGCCAACGUCCUCAACCUCCAAUGCAUCCCACCAAAAGAUGACGCCUGAAGAGCCUUGGUUUUUUG [A29G C64U C104A U106A U112C] | -0.729 |
| GACCAAUUUGCCCUCAGAGCUCGAGAACAUCUUCGGAUGCAGAGGAGGCAGGCUUCGGUGGCGCGAUAGCGCCAACCUCCUCAACCUCCAAUGCAUCCCACCACAUGAUGAUGCCUGAAGAGCCUUGGUUUUUUG [C8U G77C] | -0.262 |
| GACCAAUCUGCCCUCAGAGCUCGAGAACAUCUUGGGAUGCAGAGGAGGCAGGCUUCGGUGGCGCGAUAUCGCCAACGUCCUCAACCUCCAAUGCAUCCCACCACAUGAUGAUGCCUGAAGAGACUUGGUUUUUUG [C34G G69U C123A] | -2.45 |
| GACCAAUCUGCCCUCAGAGCUCGAGAACAUCUUCGGAUGCAUAGGAGGCAGGCUUCGGUGGCGCGAUAGCGUCAACGUCCUCAACCUCCAAUGCAUCCCACCACAUGAUGAUGCCUGAAGAGCCAUGGUUUUUUG [G42U C72U U125A] | -1.92 |
| GACCAAGCUGCCCUCAGAGCUCGAGAACAUCUUCGGAUGCAGAGGAGGCAGGCUUCGGUGGCGCGAUAGCGCCAACGUCCUCAACCUCCAAUGCACCCCACCACAUGAUGAUGCCUGAAGAGCCUUGGUUUUUUG [U7G U96C] | -0.0298 |
| GACCAAUCUGCCCUCAGAGCUCGAGAACAUCUUCGGAUGCAGUGCAGGUAGGCUUCGGUGGCGCGAUAGCGCCAACGUCCUCAACCUCCAAUGCAUCCCACCACAUGAUGAUGCCUGAAAAGCCUUGGUUUUUUG [A43U G45C C49U G120A] | -3.19 |
| GACCAAUCUGCCCUCAGCGCUCGAGAACAUCUUCGGAUGCAGAGGAGGCAGGCUUCGGUGACGCGAUAGCGCCAACGUCCUCAACCUCCAAUGCAUCCCACCACAUGUUGAUGCUUGAAGAGUCUUGGUUUUUUG [A18C G61A A108U C115U C123U] | -6.75 |
| GACCAAUCUGCCCUCAGAGCUCGAGAACAUCUUCGGAUGCAGAGGAGGCAGGCUUCGGUGGCGCGAUAGUGCCAACGUCCUCAACCUCCAAUGCAUCCCACCACAAGAUGAUGCCUGAAGAGCCUUGGUUUUUUG [C70U U106A] | -0.205 |
| GACCAAUCUGCCCUCAGAGCUCGAGAACAUCUUCGGAUGCAGAGGAGGCAGGCUUCGGUGGCGCGAUAGCGCCAACGUCCUCAACCUCCAAUGCAUCCCACCACAUGAUUAUGCCUGAAGCGCCUUGGUUUUUUG [G110U A121C] | -2.17 |
| GACCAAUAUGCCCUCAGAGCUCGAGAACAUCUUCGGAUGCAGAGGAGGCAGGAUUCGGUGGCGCGAUAGCGCCAACGUCCUCAACCUCCAAUGCAUCCCACCACAUGAUGAUGCCUGAAGAGCCUUGGUUUUUUG [C8A C53A] | 0.281 |
| GACCAAUUUGCCCUCAGAGCUCGAGAACAUCUUCGGAUGCAGAAGAGGCAGGCUUCGGUGGCGCGAUAGCGCCAACGUCCUCAACCUCCAAUGCAUCCCACCACAUGAUGAUGCCUGAAGAGCCUUGGUUUUUUG [C8U G44A] | -0.0714 |
| GACCAAUCUGCCCUCAGAGCUCGAGAACAUCUUCGAAUGCAGAGGAGGAAGGCUUCGGUGGCGCGAUAGCGCCAACGUCCUCAACCUCCAAUGCAUCCCACCACAUGAUCAUGCCUGAAGAGCCUUGGUUUUUUG [G36A C49A G110C] | -5.65 |
| GACCAAUCUGCCCUCAGAGCUCGAGAACAUCUUCGGAUGCAGAGGAGGCAGGCUUCGGUGGCACGAUAGCGCCAACGUCCUCAACCUCGAAUGCAUCCCACCACAUGAUGAUGCCUGAAGAGCCUUGGUUUUUUG [G63A C89G] | -2.7 |
| GACCAAUCUGCCCUCAGAGCUCGAGAACAUCUUCGGAUGCAGAGGAGGCAGGCUUCGGUGGCGCGAUAGCGACAACGUCCUCAACCUCCAAUGCAUCCCACCACAUGAUGAUGCCUCAAGAGCCUUGGUUUUUUG [C72A G117C] | -4.09 |
| GACCAAUCUGCCCUCAGAGCUCGAGAACAUCUUCGGAUGCAGAAGAGGCAGGGUUCGGUGGCUCGAUAGCGCCAACGUCCUCAACCUCCAAUGCAUCCCACAACGUGAUGAUGCCUCAAGAGCCUUGGUUUUUUG [G44A C53G G63U C102A A105G G117C] | -7.23 |
| GACCAAUCUGCCAUCAGAGCUCGAGAACAUCUUCGGAUGCAGAGUAGGCAGGCUUCGGUGGCGCGAUAUCGCCAACGUCCUCAACCUCCAAUGCAUCCCACCACAUGAUGAUGCCUGAAGAGCCUUGGUUUUUUG [C13A G45U G69U] | -1.92 |
| GACCAAUCUGCCCUCAGAGCUCGAGAACGUCUUCGGAUGCAGAGGAGGCAGGCUUUGGUGGCGCGAUAGCGCCAACGUCCUCAACCUCCAAUGCAUCCCACCACAUGAUGAUGCCUGAAGAGCCUUGGUUUUUUG [A29G C56U] | -1.17 |
| GACAAAUCUGCCCUCAGAGCUCGAGAACAUCUUCGGAUGCAGAGGAGGCAGGCUUCGGUGGCGCGAUAGCGCCAACGUCCUCAACCUCCAAUGCCUCCCACCACAUGAUGAUGCCUGAAGAGGCUUGGUUUUUUG [C4A A95C C123G] | -1.42 |
| GACCAAUCUGCCCUCAGAGCUCGAGAACAUCUUCGGAUGCAGAGGAGGCAGGCUUCGGUGGCGCGAUAGCGCCAACGUGCUCAACCUCCAAUGCAUCCCACCACAUGAUGAUGCCUGAAGAGCCUUGGUUGUUUG [C79G U131G] | -1.06 |
| GACCAAUCUGCCCUCAGAGCUCGAGAACAUCUUCGGAUGCAGAGGAGGCAGGCUUCGGUGUCGCGAUAGCGCCAACGUCCUAAACCUCCAAUGCAUCCCACCACAUAAUGAUGCCUGAAGAGCCUUGGUUUUUUG [G61U C82A G107A] | -5.28 |
| GACCAAUCUGCCCUCAGAGCUCGAGAACAUCUUCGGAUGCAGAGGAGGCAGGCUUCGGUGGCGAGAUAGCGCGAACGUCCUCAACCUCCAAUGCAUCCCACCACAUGAUGAUGCCUGAAGAGCCUUGGUUUUUUG [C64A C73G] | -6.34 |
